Test results taken from patent US20190218553.

Biological target: von Willebrand factor (VWF) (Homo sapiens) (UniProt P04275)
Assay: filter
Conditions: mAmCmGmAmAmCmUmGfCfCfCmUmC(6GLY)mGmAfCrGfCmAmCmAmGmAmCmGfUidT (6GLY = hexaethylene glycol linker); Bmax 60%; 2 mM CaCl2, 37 C

## ACGAACUGCCCUCGACGCACAGACGU [DTRI-009]
  Kd: 11 nM
